Experimental data from patent US20230265151A1, “GIP/GLP1 CO-AGONIST COMPOUNDS” (priority 2020, published 2023).
Positions count from the first letter of the chain named. *1 amine or outer side, *2 acyl side, *3 side chain or, on linkers, in order; H or OH if unused. Where no end group is shown, it is not given here. Side-chain parts run from the residue outwards. [ ]: non-standard residue; d: D form. The star is where a group is joined. αMePhe(2-F) = C[C@](N)(Cc1ccccc1F)C(=O)O; γGlu = O=C(O)[C@H](CCC(=O)[*:2])N[*:1]; C14 diacid = O=C(O)CCCCCCCCCCCCC(=O)*; εLys = N[C@@H](CCCCN[*:1])C(=O)[*:2]; αMeY = C[C@](N)(Cc1ccc(O)cc1)C(=O)O; αMeL = CC(C)C[C@](C)(N)C(=O)O; Orn = NCCC[C@H](N)C(=O)O; Dap = NC[C@H](N)C(=O)O; AEEA = NCCOCCOCC(=O)O; Aib = CC(C)(N)C(=O)O

B1: Example 201 (peptide)
peptide: Y[Aib]EGT[αMePhe(2-F)]TSDV[Dap]I[αMeL]LD[Orn]K([AEEA-AEEA-γGlu-C14 diacid])AQ[Aib]EFI[dE][αMeY]LIEGGK([AEEA-AEEA-γGlu-C14 diacid])SSGAPPPS-NH2
modifications: N-terminus assumed
SMILES: CC[C@H](C)[C@H](NC(=O)[C@H](CC(C)C)NC(=O)[C@](C)(Cc1ccc(O)cc1)NC(=O)[C@@H](CCC(=O)O)NC(=O)[C@@H](NC(=O)[C@H](Cc1ccccc1)NC(=O)[C@H](CCC(=O)O)NC(=O)C(C)(C)NC(=O)[C@H](CCC(N)=O)NC(=O)[C@H](C)NC(=O)[C@H](CCCCNC(=O)COCCOCCNC(=O)COCCOCCNC(=O)CC[C@H](NC(=O)CCCCCCCCCCCCC(=O)O)C(=O)O)NC(=O)[C@H](CCCN)NC(=O)[C@H](CC(=O)O)NC(=O)[C@H](CC(C)C)NC(=O)[C@](C)(CC(C)C)NC(=O)[C@@H](NC(=O)[C@H](CN)NC(=O)[C@@H](NC(=O)[C@H](CC(=O)O)NC(=O)[C@H](CO)NC(=O)[C@@H](NC(=O)[C@](C)(Cc1ccccc1F)NC(=O)[C@@H](NC(=O)CNC(=O)[C@H](CCC(=O)O)NC(=O)C(C)(C)NC(=O)[C@@H](N)Cc1ccc(O)cc1)[C@@H](C)O)[C@@H](C)O)C(C)C)[C@@H](C)CC)[C@@H](C)CC)C(=O)N[C@@H](CCC(=O)O)C(=O)NCC(=O)NCC(=O)N[C@@H](CCCCNC(=O)COCCOCCNC(=O)COCCOCCNC(=O)CC[C@H](NC(=O)CCCCCCCCCCCCC(=O)O)C(=O)O)C(=O)N[C@@H](CO)C(=O)N[C@@H](CO)C(=O)NCC(=O)N[C@@H](C)C(=O)N1CCC[C@H]1C(=O)N1CCC[C@H]1C(=O)N1CCC[C@H]1C(=O)N[C@@H](CO)C(N)=O
B2: Example 165 (peptide)
peptide: Y[Aib]EGT[αMePhe(2-F)]TSDV[Aib]I[αMeL]LD[Orn]K([εLys-εLys-γGlu-C14 diacid])AQ[Aib]EFI[dE][αMeY]LIEGGK([εLys-εLys-γGlu-C14 diacid])SSGAPPPS-NH2
modifications: N-terminus assumed
SMILES: CC[C@H](C)[C@H](NC(=O)[C@H](CC(C)C)NC(=O)[C@](C)(Cc1ccc(O)cc1)NC(=O)[C@@H](CCC(=O)O)NC(=O)[C@@H](NC(=O)[C@H](Cc1ccccc1)NC(=O)[C@H](CCC(=O)O)NC(=O)C(C)(C)NC(=O)[C@H](CCC(N)=O)NC(=O)[C@H](C)NC(=O)[C@H](CCCCNC(=O)[C@@H](N)CCCCNC(=O)[C@@H](N)CCCCNC(=O)CC[C@H](NC(=O)CCCCCCCCCCCCC(=O)O)C(=O)O)NC(=O)[C@H](CCCN)NC(=O)[C@H](CC(=O)O)NC(=O)[C@H](CC(C)C)NC(=O)[C@](C)(CC(C)C)NC(=O)[C@@H](NC(=O)C(C)(C)NC(=O)[C@@H](NC(=O)[C@H](CC(=O)O)NC(=O)[C@H](CO)NC(=O)[C@@H](NC(=O)[C@](C)(Cc1ccccc1F)NC(=O)[C@@H](NC(=O)CNC(=O)[C@H](CCC(=O)O)NC(=O)C(C)(C)NC(=O)[C@@H](N)Cc1ccc(O)cc1)[C@@H](C)O)[C@@H](C)O)C(C)C)[C@@H](C)CC)[C@@H](C)CC)C(=O)N[C@@H](CCC(=O)O)C(=O)NCC(=O)NCC(=O)N[C@@H](CCCCNC(=O)[C@@H](N)CCCCNC(=O)[C@@H](N)CCCCNC(=O)CC[C@H](NC(=O)CCCCCCCCCCCCC(=O)O)C(=O)O)C(=O)N[C@@H](CO)C(=O)N[C@@H](CO)C(=O)NCC(=O)N[C@@H](C)C(=O)N1CCC[C@H]1C(=O)N1CCC[C@H]1C(=O)N1CCC[C@H]1C(=O)N[C@@H](CO)C(N)=O
B3: Example 164 (peptide)
peptide: Y[Aib]EGT[αMePhe(2-F)]TSDV[Aib]I[αMeL]LD[Orn]K([εLys-γGlu-C14 diacid])AQ[Aib]EFI[dE][αMeY]LIEGGK([εLys-γGlu-C14 diacid])SSGAPPPS-NH2
modifications: N-terminus assumed
SMILES: CC[C@H](C)[C@H](NC(=O)[C@H](CC(C)C)NC(=O)[C@](C)(Cc1ccc(O)cc1)NC(=O)[C@@H](CCC(=O)O)NC(=O)[C@@H](NC(=O)[C@H](Cc1ccccc1)NC(=O)[C@H](CCC(=O)O)NC(=O)C(C)(C)NC(=O)[C@H](CCC(N)=O)NC(=O)[C@H](C)NC(=O)[C@H](CCCCNC(=O)[C@@H](N)CCCCNC(=O)CC[C@H](NC(=O)CCCCCCCCCCCCC(=O)O)C(=O)O)NC(=O)[C@H](CCCN)NC(=O)[C@H](CC(=O)O)NC(=O)[C@H](CC(C)C)NC(=O)[C@](C)(CC(C)C)NC(=O)[C@@H](NC(=O)C(C)(C)NC(=O)[C@@H](NC(=O)[C@H](CC(=O)O)NC(=O)[C@H](CO)NC(=O)[C@@H](NC(=O)[C@](C)(Cc1ccccc1F)NC(=O)[C@@H](NC(=O)CNC(=O)[C@H](CCC(=O)O)NC(=O)C(C)(C)NC(=O)[C@@H](N)Cc1ccc(O)cc1)[C@@H](C)O)[C@@H](C)O)C(C)C)[C@@H](C)CC)[C@@H](C)CC)C(=O)N[C@@H](CCC(=O)O)C(=O)NCC(=O)NCC(=O)N[C@@H](CCCCNC(=O)[C@@H](N)CCCCNC(=O)CC[C@H](NC(=O)CCCCCCCCCCCCC(=O)O)C(=O)O)C(=O)N[C@@H](CO)C(=O)N[C@@H](CO)C(=O)NCC(=O)N[C@@H](C)C(=O)N1CCC[C@H]1C(=O)N1CCC[C@H]1C(=O)N1CCC[C@H]1C(=O)N[C@@H](CO)C(N)=O
B4: Example 408 (peptide)
peptide: YXEGTXTSDXXIXLDXKAQXKFIXXLIXGGPSSGAPPPS
modifications: Y-Aib-EGT-αMeF(2F)-TSD-4Pal-Aib-I-αMeL-LD-Orn-K((2-[2-(2-Amino-ethoxy)-ethoxy]-acetyl)2-(γ-Glu)-(10-(4-carboxyphenoxy)decanoyl))AQ-Aib-K((2-[2-(2-Amino-ethoxy)-ethoxy]-acetyl)2-(γ-Glu)-(10-(4-carboxyphenoxy)decanoyl))FI-(D-Glu)-αMeY-LI-Orn-GGPSSGAPPPS-NH2
B5: Example 413 (peptide)
peptide: B4 peptide
modifications: Y-Aib-EGT-αMeF(2F)-TSD-4Pal-Aib-I-αMeL-LD-Orn-K((2-[2-(2-Amino-ethoxy)-ethoxy]-acetyl)2-(γ-Glu)-CO-(CH2)10-CH3)AQ-Aib-K((2-[2-(2-Amino-ethoxy)-ethoxy]-acetyl)2-(γ-Glu)-CO-(CH2)10-CH3)FI-(D-Glu)-αMeY-LI-Orn-GGPSSGAPPPS-NH2
B6: Example 212 (peptide)
peptide: B4 peptide with X10V, K21E, X28E, P31K
modifications: Aib2, αMeF(2F)6, αMeS11, αMeL13, Orn16, K17(Z), Aib20, D-Glu24, αMeY25, K31(Z), C-terminal NH2; Z = AEEA2-(γ-Glu)-CO-(CH2)12-CO2H
B7: Example 433 (peptide)
peptide: B4 peptide
modifications: Y-Aib-EGT-αMeF(2F)-TSD-4Pal-Aib-I-αMeL-LD-Orn-K((2-[2-(2-Amino-ethoxy)-ethoxy]-acetyl)3-(γ-Glu)-CO-(CH2)10-CH3)AQ-Aib-K((2-[2-(2-Amino-ethoxy)-ethoxy]-acetyl)3-(γ-Glu)-CO-(CH2)10-CH3)FI-(D-Glu)-αMeY-LI-Orn-GGPSSGAPPPS-NH2
B8: Example 465 (peptide)
peptide: B4 peptide with K21E, X28K
modifications: Y-Aib-EGT-αMeF(2F)-TSD-4Pal-Aib-I-αMeL-LD-Orn-K((2-[2-(2-Amino-ethoxy)-ethoxy]-acetyl)-Aoc-CO-(CH2)12-CO2H)AQ-Aib-EFI-(D-Glu)-αMeY-LIK(((2-[2-(2-Amino-ethoxy)-ethoxy]-acetyl)-Aoc-CO-(CH2)12-CO2H)GGPSSGAPPPS-NH2)
B9: Example 427 (peptide)
peptide: B4 peptide with K21E, X28K
modifications: Y-Aib-EGT-αMeF(2F)-TSD-4Pal-Aib-I-αMeL-LD-Orn-K((2-[2-(2-Amino-ethoxy)-ethoxy]-acetyl)-(γ-Glu)-CO-(CH2)10-CH3)AQ-Aib-EFI-(D-Glu)-αMeY-LIK((2-[2-(2-Amino-ethoxy)-ethoxy]-acetyl)-(γ-Glu)-CO-(CH2)10-CH3)GGPSSGAPPPS-NH2
B10: Example 423 (peptide)
peptide: B4 peptide with K21E, X28K
modifications: Y-Aib-EGT-αMeF(2F)-TSD-4Pal-Aib-I-αMeL-LD-Orn-K((2-[2-(2-Amino-ethoxy)-ethoxy]-acetyl)3-(γ-Glu)-CO-(CH2)10-CH3)AQ-Aib-EFI-(D-Glu)-αMeY-LIK((2-[2-(2-Amino-ethoxy)-ethoxy]-acetyl)3-(γ-Glu)-CO-(CH2)10-CH3)GGPSSGAPPPS-NH2

What was measured:
Assay in all cases: cell-based or functional assay
[1] = biological target: human glucagon-like peptide-1 (GLP-1) receptor (human, UniProt P43220 24-463)
[2] = biological target: T1, human glucose-dependent insulinotropic polypeptide (GIP) receptor (human, UniProt P48546 22-466)
T1 sequence (looked up): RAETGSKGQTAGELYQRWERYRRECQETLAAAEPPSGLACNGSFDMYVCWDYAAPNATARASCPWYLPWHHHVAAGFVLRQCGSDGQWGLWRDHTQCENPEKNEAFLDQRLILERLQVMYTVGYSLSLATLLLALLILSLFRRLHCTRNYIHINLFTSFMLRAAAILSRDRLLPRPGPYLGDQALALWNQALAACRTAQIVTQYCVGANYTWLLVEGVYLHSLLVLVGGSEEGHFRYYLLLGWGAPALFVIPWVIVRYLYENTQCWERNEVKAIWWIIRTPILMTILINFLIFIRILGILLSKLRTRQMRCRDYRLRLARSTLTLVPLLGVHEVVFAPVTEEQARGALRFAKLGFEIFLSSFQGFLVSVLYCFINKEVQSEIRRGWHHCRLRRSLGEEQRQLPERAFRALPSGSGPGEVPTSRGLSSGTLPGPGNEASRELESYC

[3] = biological target: T2, human GIP receptor (human) (UniProt P48546)
T2 sequence (looked up): T1 sequence (looked up)

hGLP-1R = hGLP-1R (Homo sapiens, UniProt P43220)
[4] = biological target: human glucagon receptor (human) (UniProt P47871)
human GLP-1 receptor = human GLP-1 receptor (human, UniProt P43220 24-463)
human GIP receptor = biological target: T3, human GIP receptor (human, UniProt P48546 22-466)
T3 sequence (looked up): T1 sequence (looked up)

Binder | cAMP EC50 [1] [nM] | cAMP Emax [1] [%] | cAMP EC50 [2] [nM] | cAMP Emax [2] [%] | cAMP EC50 [3] [nM] | cAMP Emax [3] [%] | cAMP EC50 (hGLP-1R) [nM] | cAMP Emax (hGLP-1R) [%] | cAMP EC50 [4] [nM] | cAMP EC50 (1.0% HSA) (human GLP-1 receptor) [nM] | cAMP EC50 (1.0% HSA) (human GIP receptor) [nM] | cAMP Emax (1.0% HSA) (human GIP receptor) [%]
Y[Aib]EGT[αMePhe(2-F)]TSDV[Aib]I[αMeL]LD[Orn]K([AEEA-AEEA-εLys-C14 diacid])AQ[Aib]EFI[dE][αMeY]LIEGGK([AEEA-AEEA-εLys-C14 diacid])SSGAPPPS-NH2 [Example 163] | 0.199 | 86.3 | 0.0427 | 98.2 |  |  |  |  |  |  |  | 
B1 | 0.487 |  | 0.188 | 92.2 |  |  |  |  |  |  |  | 
B2 | 0.291 |  | 0.0442 | 96.1 |  |  |  |  |  |  |  | 
B3 | 0.236 |  | 0.0464 | 95.8 |  |  |  |  |  |  |  | 
B4 |  |  |  |  | 0.00888 | 99.7 | 0.227 | 102 | > 9950 | 5.92 | 0.299 | 
B5 |  |  |  |  | 0.0146 | 101 | 0.234 | 96.9 | > 9950 | 5.47 | 0.422 | 
B6 | 0.265 |  | 0.0385 | 100 |  |  |  |  |  |  |  | 
B7 |  |  |  |  | 0.00972 | 94 | 0.128 | 102 | > 9950 | 2.63 | 0.136 | 
B8 |  |  |  |  | 0.0174 | 94.9 | 0.413 | 98.6 | > 9950 | 73.2 | 3.63 | 94.4
B9 |  |  |  |  | 0.0132 | 95.9 | 0.206 | 109 | > 9950 | 25.1 | 2.04 | 92.4
B10 |  |  |  |  | 0.00658 | 104 | 0.0721 | 105 | > 9950 | 4.74 | 0.294 | 89.7
